Substrate in this data set: O=Cc1cccc(C(=O)O)c1
Description: initial rates by HPLC, Michaelis-Menten fit. It is filed as biochemical, Escherichia coli. The note with it: 50 mM Li-hydroxypyruvate, 50 mM Tris-HCl pH 7.0, 2.4 mM ThDP, 9 mM MgCl2, 22 °C. The source says: initial rates by HPLC, Michaelis-Menten fit on transketolase (TK)

B1: transketolase (TK) (Escherichia coli K-12; A282P/D469T/G506A/H192P/I365L/R520Q/S385Y) (protein)
chain: MSSRKELANAIRALSMDAVQKAKSGHPGAPMGMADIAEVLWRDFLKHNPQNPSWADRDRFVLSNGHGSMLIYSLLHLTGYDLPMEELKNFRQLHSKTPGHPEVGYTAGVETTTGPLGQGIANAVGMAIAEKTLAAQFNRPGHDIVDHYTYAFMGDGCMMEGISHEVCSLAGTLKLGKLIAFYDDNGISIDGPVEGWFTDDTAMRFEAYGWHVIRDIDGHDAASIKRAVEEARAVTDKPSLLMCKTIIGFGSPNKAGTHDSHGAPLGDAEIALTREQLGWKYPPFEIPSEIYAQWDAKEAGQAKESAWNEKFAAYAKAYPQEAAEFTRRMKGEMPSDFDAKAKEFIAKLQANPAKIASRKASQNALEAFGPLLPEFLGGSADLAPYNLTLWSGSKAINEDAAGNYIHYGVREFGMTAIANGISLHGGFLPYTSTFLMFVEYARNAVRMAALMKQRQVMVYTHDSIGLGETGPTHQPVEQVASLRVTPNMSTWRPCDQVESAVAWKYAVERQDGPTALILSQQNLAQQERTEEQLANIARGGYVLKDCAGQPELIFIATGSEVELAVAAYEKLTAEGVKARVVSMPSTDAFDKQDAAYRESVLPKAVTARVAVEAGIADYWYKYVGLNGAIVGMTTFGESAPAELLFEEFGFTVDNVVAKAKELL
notes: recombinant from plasmid pQR791, purified; homodimer
Regarding B1, the Km is on record as 2.3 (0.3) mM; the kcat (in general, the maximal rate divided by the concentration of active sites) was found to be 3.8 s⁻¹; the kcat/Km (usually the turnover number divided by the Michaelis constant) came to 1650 M⁻¹ s⁻¹.

B2: transketolase (TK) (Escherichia coli K-12; D469T/H192P/R520Q/S385Y) (protein)
chain: MSSRKELANAIRALSMDAVQKAKSGHPGAPMGMADIAEVLWRDFLKHNPQNPSWADRDRFVLSNGHGSMLIYSLLHLTGYDLPMEELKNFRQLHSKTPGHPEVGYTAGVETTTGPLGQGIANAVGMAIAEKTLAAQFNRPGHDIVDHYTYAFMGDGCMMEGISHEVCSLAGTLKLGKLIAFYDDNGISIDGPVEGWFTDDTAMRFEAYGWHVIRDIDGHDAASIKRAVEEARAVTDKPSLLMCKTIIGFGSPNKAGTHDSHGAPLGDAEIALTREQLGWKYAPFEIPSEIYAQWDAKEAGQAKESAWNEKFAAYAKAYPQEAAEFTRRMKGEMPSDFDAKAKEFIAKLQANPAKIASRKASQNAIEAFGPLLPEFLGGSADLAPYNLTLWSGSKAINEDAAGNYIHYGVREFGMTAIANGISLHGGFLPYTSTFLMFVEYARNAVRMAALMKQRQVMVYTHDSIGLGETGPTHQPVEQVASLRVTPNMSTWRPCDQVESAVAWKYGVERQDGPTALILSQQNLAQQERTEEQLANIARGGYVLKDCAGQPELIFIATGSEVELAVAAYEKLTAEGVKARVVSMPSTDAFDKQDAAYRESVLPKAVTARVAVEAGIADYWYKYVGLNGAIVGMTTFGESAPAELLFEEFGFTVDNVVAKAKELL
notes: as for B1
For B2, the Km is recorded as 2.2 (0.4) mM, the kcat came out at 3.5 s⁻¹ and the kcat/Km was 1590 M⁻¹ s⁻¹.

B3: transketolase (TK) (Escherichia coli K-12; A282P/D469T/G506A/H192P/R520Q/S385Y) (protein)
chain: MSSRKELANAIRALSMDAVQKAKSGHPGAPMGMADIAEVLWRDFLKHNPQNPSWADRDRFVLSNGHGSMLIYSLLHLTGYDLPMEELKNFRQLHSKTPGHPEVGYTAGVETTTGPLGQGIANAVGMAIAEKTLAAQFNRPGHDIVDHYTYAFMGDGCMMEGISHEVCSLAGTLKLGKLIAFYDDNGISIDGPVEGWFTDDTAMRFEAYGWHVIRDIDGHDAASIKRAVEEARAVTDKPSLLMCKTIIGFGSPNKAGTHDSHGAPLGDAEIALTREQLGWKYPPFEIPSEIYAQWDAKEAGQAKESAWNEKFAAYAKAYPQEAAEFTRRMKGEMPSDFDAKAKEFIAKLQANPAKIASRKASQNAIEAFGPLLPEFLGGSADLAPYNLTLWSGSKAINEDAAGNYIHYGVREFGMTAIANGISLHGGFLPYTSTFLMFVEYARNAVRMAALMKQRQVMVYTHDSIGLGETGPTHQPVEQVASLRVTPNMSTWRPCDQVESAVAWKYAVERQDGPTALILSQQNLAQQERTEEQLANIARGGYVLKDCAGQPELIFIATGSEVELAVAAYEKLTAEGVKARVVSMPSTDAFDKQDAAYRESVLPKAVTARVAVEAGIADYWYKYVGLNGAIVGMTTFGESAPAELLFEEFGFTVDNVVAKAKELL
notes: as for B1
On to B3, for which the Km is given as 2.7 (0.4) mM, the kcat amounted to 3.9 s⁻¹ and the kcat/Km is 1440 M⁻¹ s⁻¹.

B4: transketolase (TK) (Escherichia coli K-12; A282P/D469T/H192P/R520Q/S385Y) (protein)
chain: MSSRKELANAIRALSMDAVQKAKSGHPGAPMGMADIAEVLWRDFLKHNPQNPSWADRDRFVLSNGHGSMLIYSLLHLTGYDLPMEELKNFRQLHSKTPGHPEVGYTAGVETTTGPLGQGIANAVGMAIAEKTLAAQFNRPGHDIVDHYTYAFMGDGCMMEGISHEVCSLAGTLKLGKLIAFYDDNGISIDGPVEGWFTDDTAMRFEAYGWHVIRDIDGHDAASIKRAVEEARAVTDKPSLLMCKTIIGFGSPNKAGTHDSHGAPLGDAEIALTREQLGWKYPPFEIPSEIYAQWDAKEAGQAKESAWNEKFAAYAKAYPQEAAEFTRRMKGEMPSDFDAKAKEFIAKLQANPAKIASRKASQNAIEAFGPLLPEFLGGSADLAPYNLTLWSGSKAINEDAAGNYIHYGVREFGMTAIANGISLHGGFLPYTSTFLMFVEYARNAVRMAALMKQRQVMVYTHDSIGLGETGPTHQPVEQVASLRVTPNMSTWRPCDQVESAVAWKYGVERQDGPTALILSQQNLAQQERTEEQLANIARGGYVLKDCAGQPELIFIATGSEVELAVAAYEKLTAEGVKARVVSMPSTDAFDKQDAAYRESVLPKAVTARVAVEAGIADYWYKYVGLNGAIVGMTTFGESAPAELLFEEFGFTVDNVVAKAKELL
notes: as for B1
Take B4: the Km is listed as 1.3 (0.2) mM, the kcat turned out to be 2.9 s⁻¹ and the kcat/Km came out at 2230 M⁻¹ s⁻¹.

B5: transketolase (TK) (Escherichia coli K-12; D469T/R520Q/S385Y) (protein)
chain: MSSRKELANAIRALSMDAVQKAKSGHPGAPMGMADIAEVLWRDFLKHNPQNPSWADRDRFVLSNGHGSMLIYSLLHLTGYDLPMEELKNFRQLHSKTPGHPEVGYTAGVETTTGPLGQGIANAVGMAIAEKTLAAQFNRPGHDIVDHYTYAFMGDGCMMEGISHEVCSLAGTLKLGKLIAFYDDNGISIDGHVEGWFTDDTAMRFEAYGWHVIRDIDGHDAASIKRAVEEARAVTDKPSLLMCKTIIGFGSPNKAGTHDSHGAPLGDAEIALTREQLGWKYAPFEIPSEIYAQWDAKEAGQAKESAWNEKFAAYAKAYPQEAAEFTRRMKGEMPSDFDAKAKEFIAKLQANPAKIASRKASQNAIEAFGPLLPEFLGGSADLAPYNLTLWSGSKAINEDAAGNYIHYGVREFGMTAIANGISLHGGFLPYTSTFLMFVEYARNAVRMAALMKQRQVMVYTHDSIGLGETGPTHQPVEQVASLRVTPNMSTWRPCDQVESAVAWKYGVERQDGPTALILSQQNLAQQERTEEQLANIARGGYVLKDCAGQPELIFIATGSEVELAVAAYEKLTAEGVKARVVSMPSTDAFDKQDAAYRESVLPKAVTARVAVEAGIADYWYKYVGLNGAIVGMTTFGESAPAELLFEEFGFTVDNVVAKAKELL
notes: as for B1
For the protein B5, the Km is on record as 2.3 (0.3) mM, the kcat worked out at 2.8 s⁻¹ and the kcat/Km amounted to 1220 M⁻¹ s⁻¹.

B6: transketolase (TK) (Escherichia coli K-12; A282P/D469T/H192P/I365L/R520Q/S385Y) (protein)
chain: MSSRKELANAIRALSMDAVQKAKSGHPGAPMGMADIAEVLWRDFLKHNPQNPSWADRDRFVLSNGHGSMLIYSLLHLTGYDLPMEELKNFRQLHSKTPGHPEVGYTAGVETTTGPLGQGIANAVGMAIAEKTLAAQFNRPGHDIVDHYTYAFMGDGCMMEGISHEVCSLAGTLKLGKLIAFYDDNGISIDGPVEGWFTDDTAMRFEAYGWHVIRDIDGHDAASIKRAVEEARAVTDKPSLLMCKTIIGFGSPNKAGTHDSHGAPLGDAEIALTREQLGWKYPPFEIPSEIYAQWDAKEAGQAKESAWNEKFAAYAKAYPQEAAEFTRRMKGEMPSDFDAKAKEFIAKLQANPAKIASRKASQNALEAFGPLLPEFLGGSADLAPYNLTLWSGSKAINEDAAGNYIHYGVREFGMTAIANGISLHGGFLPYTSTFLMFVEYARNAVRMAALMKQRQVMVYTHDSIGLGETGPTHQPVEQVASLRVTPNMSTWRPCDQVESAVAWKYGVERQDGPTALILSQQNLAQQERTEEQLANIARGGYVLKDCAGQPELIFIATGSEVELAVAAYEKLTAEGVKARVVSMPSTDAFDKQDAAYRESVLPKAVTARVAVEAGIADYWYKYVGLNGAIVGMTTFGESAPAELLFEEFGFTVDNVVAKAKELL
notes: as for B1
On to B6, for which the Km was 1.3 (0.4) mM, the kcat was 2.1 s⁻¹ and the kcat/Km amounted to 1620 M⁻¹ s⁻¹.

B7: transketolase (TK) (Escherichia coli K-12; A282P/D469T/R520Q/S385Y) (protein)
chain: MSSRKELANAIRALSMDAVQKAKSGHPGAPMGMADIAEVLWRDFLKHNPQNPSWADRDRFVLSNGHGSMLIYSLLHLTGYDLPMEELKNFRQLHSKTPGHPEVGYTAGVETTTGPLGQGIANAVGMAIAEKTLAAQFNRPGHDIVDHYTYAFMGDGCMMEGISHEVCSLAGTLKLGKLIAFYDDNGISIDGHVEGWFTDDTAMRFEAYGWHVIRDIDGHDAASIKRAVEEARAVTDKPSLLMCKTIIGFGSPNKAGTHDSHGAPLGDAEIALTREQLGWKYPPFEIPSEIYAQWDAKEAGQAKESAWNEKFAAYAKAYPQEAAEFTRRMKGEMPSDFDAKAKEFIAKLQANPAKIASRKASQNAIEAFGPLLPEFLGGSADLAPYNLTLWSGSKAINEDAAGNYIHYGVREFGMTAIANGISLHGGFLPYTSTFLMFVEYARNAVRMAALMKQRQVMVYTHDSIGLGETGPTHQPVEQVASLRVTPNMSTWRPCDQVESAVAWKYGVERQDGPTALILSQQNLAQQERTEEQLANIARGGYVLKDCAGQPELIFIATGSEVELAVAAYEKLTAEGVKARVVSMPSTDAFDKQDAAYRESVLPKAVTARVAVEAGIADYWYKYVGLNGAIVGMTTFGESAPAELLFEEFGFTVDNVVAKAKELL
notes: as for B1
On to B7, for which the Km is 2.1 (0.2) mM, the kcat is 3.2 s⁻¹ and the kcat/Km worked out at 1520 M⁻¹ s⁻¹.

Source of the values: publication PMC6310800, “Exploiting correlated molecular-dynamics networks to counteract enzyme activity–stability trade-off” (Proceedings of the National Academy of Sciences of the …, 2018).
